# Reference: patent US20190060405A1
# Biological target: rat CSF1-R (CD115) expressed on pDCs (rat) (UniProt Q00495)
# Test: cell-based or functional assay
# Sequence of UniProt Q00495 (Q00495 20-978): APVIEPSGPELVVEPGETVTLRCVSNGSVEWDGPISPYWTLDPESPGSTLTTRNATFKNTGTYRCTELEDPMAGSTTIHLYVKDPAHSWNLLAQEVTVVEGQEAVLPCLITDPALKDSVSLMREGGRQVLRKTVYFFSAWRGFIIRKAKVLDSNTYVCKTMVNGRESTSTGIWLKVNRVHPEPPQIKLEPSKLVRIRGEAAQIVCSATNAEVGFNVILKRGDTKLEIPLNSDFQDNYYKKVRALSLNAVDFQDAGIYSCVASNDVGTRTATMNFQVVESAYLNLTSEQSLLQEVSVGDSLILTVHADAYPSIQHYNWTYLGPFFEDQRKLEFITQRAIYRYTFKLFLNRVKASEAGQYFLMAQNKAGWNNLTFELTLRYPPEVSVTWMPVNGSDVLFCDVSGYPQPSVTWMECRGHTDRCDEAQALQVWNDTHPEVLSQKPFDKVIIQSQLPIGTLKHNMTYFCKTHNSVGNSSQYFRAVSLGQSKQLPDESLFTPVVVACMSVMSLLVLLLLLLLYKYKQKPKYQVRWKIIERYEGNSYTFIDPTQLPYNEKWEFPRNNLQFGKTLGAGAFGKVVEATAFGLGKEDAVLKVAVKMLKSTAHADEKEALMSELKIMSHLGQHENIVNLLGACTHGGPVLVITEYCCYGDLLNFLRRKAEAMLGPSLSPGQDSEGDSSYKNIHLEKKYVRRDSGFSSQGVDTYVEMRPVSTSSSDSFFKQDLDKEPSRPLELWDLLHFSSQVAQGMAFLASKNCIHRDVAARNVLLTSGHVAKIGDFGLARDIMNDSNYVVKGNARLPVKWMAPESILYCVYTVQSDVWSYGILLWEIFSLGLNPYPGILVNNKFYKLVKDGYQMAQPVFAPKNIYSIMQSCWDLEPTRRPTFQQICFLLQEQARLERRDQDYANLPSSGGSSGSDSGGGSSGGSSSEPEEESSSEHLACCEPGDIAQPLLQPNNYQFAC
substance,measurement,value
"Rat M-CSF protein (ab56288, ABCAM) (from UniProt Q8JZQ0 33-187) (ligand)","suppression of CD4+CD25- T cells proliferation (MLR, CFSE)",93.5%
